Reference: PMC9458464, “The BAF A12T mutation disrupts lamin A/C interaction, impairing robust repair of nuclear envelope ruptures in Nestor–Guillermo progeria syndrome cells” (Nucleic Acids Research, 2022)
Where a chain is given by its changes, count along the chain named. In names and notes the source's numbering stands.

Assays:
[1] = target: T1, lamin A/C Ig-fold domain (aa 411-566) (human, UniProt P02545 411-566); experiment: NMR titration; 2D 1H-15N HSQC of 15N-labelled lamin A/C Ig-fold (80 uM; 160 uM in one sample) with unlabelled BAF at ratios 1:1 and 1:2; 50 mM HEPES pH 7.4, 150 mM NaCl, 293 K; peak intensity ratios I/Io; settings: both partners purified
T1 construct: human lamin A/C fragment from aa 411 to aa 566 (Ig-fold domain); 15N-labelled (grown in M9) for the NMR experiments; also called Igfold domain of lamin A/C; source: E. coli BL21* (DE3), purified (glutathione beads, thrombin cleavage, gel filtration)
T1 sequence (looked up): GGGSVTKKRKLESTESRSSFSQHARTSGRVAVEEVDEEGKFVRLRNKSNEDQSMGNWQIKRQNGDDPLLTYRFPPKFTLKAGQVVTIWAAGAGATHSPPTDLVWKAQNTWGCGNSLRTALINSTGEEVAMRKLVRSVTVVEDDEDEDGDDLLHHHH

[2] = target: T1, lamin A/C Ig-fold domain (aa 411-566); experiment: ITC; VP-ITC; 100 or 200 uM lamin A/C Ig-fold in the syringe, 20 uM BAF WT or 40 uM BAF A12T in the cell; 50 mM Hepes pH 7.4, 150 mM NaCl, 288 K; stoichiometry set to 0.5 in the fit; each experiment done twice; settings: both partners purified
[3] = target: the molecule itself; experiment: crystal structure; BAF A12T-lamin A/C Ig-fold complex recovered after ITC (50 mM Hepes pH 7.4, 150 mM NaCl), about 20 mg/ml; sitting drop, 0.1 M bicine pH 9, 3 M ammonium sulfate; 1.6 A
[4] = target: T2, BAF A12T (barrier-to-autointegration factor A12T, purified cysteine-free construct) (human, UniProt O75531 1-89, M1G | A12T | C67A | C77A | C80A | C85A); experiment: ITC
T2 sequence: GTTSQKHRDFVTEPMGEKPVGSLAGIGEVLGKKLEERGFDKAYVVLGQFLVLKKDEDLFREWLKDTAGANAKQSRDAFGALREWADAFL

[5] = target: T3, BAF WT (barrier-to-autointegration factor, purified cysteine-free construct) (human, UniProt O75531 1-89, M1G | C67A | C77A | C80A | C85A); experiment: ITC
T3 sequence: T2 sequence with T12A

[6] = target: T2, BAF A12T (barrier-to-autointegration …); experiment: ITC; experiment 1
[7] = target: T3, BAF WT (barrier-to-autointegration …); experiment: ITC; experiment 1
[8] = target: T2, BAF A12T (barrier-to-autointegration …); experiment: ITC; experiment 2
[9] = target: T3, BAF WT (barrier-to-autointegration …); experiment: ITC; experiment 2

B1: BAF WT (barrier-to-autointegration factor, purified cysteine-free construct) (natural protein, human, UniProt O75531 1-89, looked up)
chain: T2 sequence with T12A
notes: human barrier-to-autointegration factor (BAF, 89 amino acids); after tag cleavage the first residue is G instead of M; gene synthesized by Genscript in pETM13; also called BAF WT dimer; not shown: His8, N-terminal, cleaved
percent of the initial NMR signals of the Ig-fold left at 1:1 ratio [1]: 27% | percent of the initial NMR signals of the Ig-fold left at 1:2 ratio [1]: 4% | Kd [2]: 2.7 ± 1.2 µM

B2: BAF A12T (barrier-to-autointegration factor A12T, purified cysteine-free construct) (natural protein, human, UniProt O75531 1-89, looked up)
chain: T2 sequence
notes: human barrier-to-autointegration factor (BAF, 89 amino acids); made by mutagenesis of the BAF WT expression vector (all cysteines to alanine, M1G after tag cleavage) with the NGPS mutation A12T; PDB 6GHD holds the parent (BAF WT); PDB 7Z21 holds this mutant; also called BAF A12T dimer; not shown: His8, N-terminal, cleaved
stoichiometry N [3]: 2 | decrease of NMR signal intensity of the Ig-fold at 1:1 ratio [1]: 43% | decrease of NMR signal intensity of the Ig-fold at 1:2 ratio [1]: 66% | Kd [2]: 33 ± 4 µM

B3: lamin A/C Ig-fold domain (aa 411-566) (domain or fragment)
chain: T1 sequence (looked up)
Kd [4]: 24 µM | Kd [5]: 2.3 µM | Kd [6]: 24 µM | Kd [7]: 2.3 µM | Kd [8]: 42 µM | Kd [9]: 3.1 µM
